One assay deals with T1, FP15 A517E (HIV-1 Env fusion peptide 512-526, most …, A517E).
T1 construct: also called FP15 with Glu at residue 517; source: peptide microarray (PEPperPRINT)
T1 chain: AVGIGEVFLGFLGAA
The assay can be described thus: peptide or protein array. The note with it: both partners purified.

Assay [1] has as its target T2, HIV-1 fusion peptide FP15 (Env residues 512-526, most common sequence) (HIV-1 Env fusion peptide 512-526, most …).
T2 construct: source: peptide microarray (PEPperPRINT)
T2 chain: AVGIGAVFLGFLGAA
The assay can be described thus: peptide or protein array. The note with it: both partners purified.

In a further assay the target is T3, FP15 V518D (HIV-1).
T3 sequence (peptide): AVGIGADFLGFLGAA
In words: peptide or protein array.

Another assay concerns the target T4, FP15 V518E (HIV-1).
T4 sequence (peptide): AVGIGAEFLGFLGAA
In words: peptide or protein array.

In another assay the target is T5, FP15 F519D (HIV-1).
T5 sequence (peptide): AVGIGAVDLGFLGAA
In words: peptide or protein array.

A further assay deals with T6, FP15 F519E (HIV-1).
T6 sequence (peptide): AVGIGAVELGFLGAA
In words: peptide or protein array.

Another assay concerns the target T7, FP15 A517D (HIV-1).
T7 sequence (peptide): AVGIGDVFLGFLGAA
The assay can be described thus: peptide or protein array.

In assay [2] the target is T8, BG505_RnS soluble HIV-1 Env trimer (WT FP sequence) (HIV-1 BG505, UniProt Q2N0S6, stabilised).
T8 construct: also called BG505 trimer; not shown: single-chain Fc, N-terminal, cleaved; copies: 3 + 3
In words: BLI; ForteBio Octet HTX; IgG loaded on anti-human Fc (AHC) tips at 20 ug/ml for 3 min; Env trimers at 50 ug/ml for 5 min, dissociation in PBS 5 min; corrected response values, triplicates. The note with it: both partners purified.

Assay [3] deals with T8, BG505_RnS soluble HIV-1 Env trimer (WT …). The assay can be described thus: BLI. The note with it: both partners purified.

B1: ACS202 IgG (antibody, V domains shown)
VH: QVQLVESGGGVVQPGGSLRLSCAASGFAFKDFGMHWVRQAPGKGLEWVAVIGGGHGQHQSYSESVKGRFAITRDNEKNKLYLHMDRLRTEDTAVYYCAKDRLGRPWNIGGRLVYYYYGMDVWGQGTTVTVSS
VL: AIRMTQSPSSLSASVGDRVTITCQASQDIKKSLNWYRQKPGKAPELLIHDASILQTGVPSAFTASGSGTHFSFVINKLQPEDVGTYFCQEYENLQFTFGPGTKVEIK
notes: source: Expi293, transfected, purified (protein A)
In the case of B1, the “fold increase of binding intensity over WT” value with FP15 A517E, with FP15 V518D (HIV-1), in the assay with FP15 V518E (HIV-1), with FP15 F519D (HIV-1), with FP15 F519E (HIV-1) and in the assay with FP15 A517D (HIV-1) was 10 fold each time. Besides, the binding result in [1] and in [2] was “binds” in each case.

B2: N123-VRC34.01 IgG (antibody, V domains shown)
VH: QEVLVQSGAEVKKPGASVKVSCRAFGYTFTGNALHWVRQAPGQGLEWLGWINPHSGDTTTSQKFQGRVYMTRDKSINTAFLDVTRLTSDDTGIYYCARDKYYGNEAVGMDVWGQGTSVTVSS
VL: IQLTQSPSFLSASVGDKVTITCRASQGVRNELAWYQQKPGKAPNLLIYYASTLQSGVPSRFSATGSGTHFTLTVSSLQPEDFATYFCQHMSSYPLTFGGGTKVEIK
notes: as for B1
In the case of B2, the binding result in assay [3] is given as “binds”.

B3: 0PV-c.01 IgG (antibody, V domains shown)
VH: QVQLVESGPGVVKPSETLSLTCVVSGGTPGRGFLYWSWVRQPPGKGLEWIGGTATNTDITDYNPSLKSRAAISKDTSRNQFLLNLKPLTAGDTAVYYCTSRAKDYRGPSYSRIDVWGPGVLVTVSS
VL: DIVMTQTPLSLPVTPGEPASISCRSSQSLLDSDGNTCLDWFLQKPGQSPQLLIYDVSNRVSGVPDRFSGSGSDTDFTLKISRVEAEDVGVYYCMQFVEFPLTFGGGTKVEIR
notes: as for B1
For B3, the binding result in assay [1] is on record as “binds”.

The values are drawn from publication PMC11602501 (Frontiers in Immunology, 2024).
